In paper doi:10.1101/2021.09.03.458554 (bioRxiv, 2021):

Experiments:
yGid10 (Δ1-64, Δ285-292) = target: T1, yGid10 (Δ1-64, Δ285-292) (S. cerevisiae, UniProt P53242 65-284); experiment: crystal structure
T1 sequence: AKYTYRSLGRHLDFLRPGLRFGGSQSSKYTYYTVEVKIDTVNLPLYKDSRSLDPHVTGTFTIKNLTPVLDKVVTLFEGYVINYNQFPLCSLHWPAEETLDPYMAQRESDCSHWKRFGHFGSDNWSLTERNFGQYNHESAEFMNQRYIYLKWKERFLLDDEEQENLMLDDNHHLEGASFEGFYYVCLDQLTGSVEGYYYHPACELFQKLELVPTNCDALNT

hGid4 (Δ1-115) = target: T2, hGid4 (Δ1-115) (human, UniProt Q8IVV7 116-300); experiment: fluorescence polarisation
T2 sequence: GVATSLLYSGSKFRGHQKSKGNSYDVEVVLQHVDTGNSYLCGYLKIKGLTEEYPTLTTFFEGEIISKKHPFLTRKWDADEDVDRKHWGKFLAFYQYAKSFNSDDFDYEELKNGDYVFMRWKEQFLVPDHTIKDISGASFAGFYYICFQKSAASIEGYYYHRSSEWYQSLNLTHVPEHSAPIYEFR

FWLPANLW [FWLPANLW peptide]
binding result (yGid10 (Δ1-64, Δ285-292)): binds

GVATSLLW [GVATSLLW peptide (hGid4 residues 116-122)]
binding result (hGid4 (Δ1-115)): binds
